In the Human Domainome abundance scans (Beltran et al. 2025):
± gives the uncertainty stated by the source.

B1: Androgen receptor, residues 557 to 632; numbered along this chain, P10275 (parent)
chain: QKTCLICGDEASGCHYGALTCGSCKVFFKRAAEGKQKYLCASRNDCTIDKFRRKNCPSCRLRKCYEAGMTLGARKL

Variants of: B1
Test: abundance fitness (aPCA) (normalised: wild type 0, dead -1); higher = more abundant; growth selection in yeast, the domain comes from the species named
Settings: Homo sapiens

| Variant | abundance fitness |
| --- | --- |
| QKTCLICGDEASGCHYGALTCGSCKVFFKRATEGKQKYLCASRNDCTIDKFRRKNCPSCRLRKCYEAGMTLGARKL [A32T] | 0.114 ± 0.05 |
| QKTCLICGDEASGCHYGALTCGSCKVFFKRAHEGKQKYLCASRNDCTIDKFRRKNCPSCRLRKCYEAGMTLGARKL [A32H] | -0.233 ± 0.093 |
| QKTCLICGDEASGCHYGALTCGSCKVFFKRACEGKQKYLCASRNDCTIDKFRRKNCPSCRLRKCYEAGMTLGARKL [A32C] | -0.023 ± 0.054 |
| QKTCLICGDEASGCHYGALTCGSCKVFFKRAYEGKQKYLCASRNDCTIDKFRRKNCPSCRLRKCYEAGMTLGARKL [A32Y] | -0.145 ± 0.065 |
| QKTCLICGDEASGCHYGALTCGSCKVFFKRASEGKQKYLCASRNDCTIDKFRRKNCPSCRLRKCYEAGMTLGARKL [A32S] | -0.052 ± 0.045 |
| QKTCLICGDEASGCHYGALTCGSCKVFFKRAIEGKQKYLCASRNDCTIDKFRRKNCPSCRLRKCYEAGMTLGARKL [A32I] | -0.011 ± 0.061 |
| QKTCLICGDEASGCHYGALTCGSCKVFFKRAGEGKQKYLCASRNDCTIDKFRRKNCPSCRLRKCYEAGMTLGARKL [A32G] | -0.001 ± 0.048 |
| QKTCLICGDEASGCHYGALTCGSCKVFFKRAFEGKQKYLCASRNDCTIDKFRRKNCPSCRLRKCYEAGMTLGARKL [A32F] | -0.197 ± 0.065 |
| QKTCLICGDEASGCHYGALTCGSCKVFFKRAEEGKQKYLCASRNDCTIDKFRRKNCPSCRLRKCYEAGMTLGARKL [A32E] | 0.036 ± 0.089 |
| QKTCLICGDEASGCHYGALTCGSCKVFFKRADEGKQKYLCASRNDCTIDKFRRKNCPSCRLRKCYEAGMTLGARKL [A32D] | 0.007 ± 0.097 |
| QKTCLICGDEASGCHYGALTCGSCKVFFKRAWEGKQKYLCASRNDCTIDKFRRKNCPSCRLRKCYEAGMTLGARKL [A32W] | -0.088 ± 0.061 |
| QKTCLICGDEASGCHYGALTCGSCKVFFKRAREGKQKYLCASRNDCTIDKFRRKNCPSCRLRKCYEAGMTLGARKL [A32R] | -0.155 ± 0.043 |
| QKTCLICGDEASGCHYGALTCGSCKVFFKRAMEGKQKYLCASRNDCTIDKFRRKNCPSCRLRKCYEAGMTLGARKL [A32M] | -0.019 ± 0.068 |
| QKTCLICGDEASGCHYGALTCGSCKVFFKRAQEGKQKYLCASRNDCTIDKFRRKNCPSCRLRKCYEAGMTLGARKL [A32Q] | 0.034 ± 0.058 |
| QKTCLICGDEASGCHYGALTCGSCKVFFKRALEGKQKYLCASRNDCTIDKFRRKNCPSCRLRKCYEAGMTLGARKL [A32L] | -0.167 ± 0.046 |
| QKTCLICGDEASGCHYGALTCGSCKVFFKRAVEGKQKYLCASRNDCTIDKFRRKNCPSCRLRKCYEAGMTLGARKL [A32V] | -0.016 ± 0.05 |
| QKTCLICGDEASGCHYGALTCGSCKVFFKRAPEGKQKYLCASRNDCTIDKFRRKNCPSCRLRKCYEAGMTLGARKL [A32P] | -0.591 ± 0.13 |
| QKTCLICGDEASGCHYGALTCGSCKVFFKHAAEGKQKYLCASRNDCTIDKFRRKNCPSCRLRKCYEAGMTLGARKL [R30H] | 0.114 ± 0.074 |

| Variant | abundance fitness |
| --- | --- |
| QKTCLICGDEASGCHYGALTCGSCKVFFKTAAEGKQKYLCASRNDCTIDKFRRKNCPSCRLRKCYEAGMTLGARKL [R30T] | 0.01 ± 0.065 |
| QKTCLICGDEASGCHYGALTCGSCKVFFKFAAEGKQKYLCASRNDCTIDKFRRKNCPSCRLRKCYEAGMTLGARKL [R30F] | 0.03 ± 0.052 |
| QKTCLICGDEASGCHYGALTCGSCKVFFKLAAEGKQKYLCASRNDCTIDKFRRKNCPSCRLRKCYEAGMTLGARKL [R30L] | 0.099 ± 0.053 |
| QKTCLICGDEASGCHYGALTCGSCKVFFKWAAEGKQKYLCASRNDCTIDKFRRKNCPSCRLRKCYEAGMTLGARKL [R30W] | -0.114 ± 0.17 |
| QKTCLICGDEASGCHYGALTCGSCKVFFKIAAEGKQKYLCASRNDCTIDKFRRKNCPSCRLRKCYEAGMTLGARKL [R30I] | -0.067 ± 0.058 |
| QKTCLICGDEASGCHYGALTCGSCKVFFKKAAEGKQKYLCASRNDCTIDKFRRKNCPSCRLRKCYEAGMTLGARKL [R30K] | 0.103 ± 0.087 |
| QKTCLICGDEASGCHYGALTCGSCKVFFKSAAEGKQKYLCASRNDCTIDKFRRKNCPSCRLRKCYEAGMTLGARKL [R30S] | -0.016 ± 0.049 |
| QKTCLICGDEASGCHYGALTCGSCKVFFKYAAEGKQKYLCASRNDCTIDKFRRKNCPSCRLRKCYEAGMTLGARKL [R30Y] | -0.191 ± 0.063 |
| QKTCLICGDEASGCHYGALTCGSCKVFFKDAAEGKQKYLCASRNDCTIDKFRRKNCPSCRLRKCYEAGMTLGARKL [R30D] | -0.066 ± 0.11 |
| QKTCLICGDEASGCHYGALTCGSCKVFFKPAAEGKQKYLCASRNDCTIDKFRRKNCPSCRLRKCYEAGMTLGARKL [R30P] | -0.395 ± 0.098 |
| QKTCLICGDEASGCHYGALTCGSCKVFFKEAAEGKQKYLCASRNDCTIDKFRRKNCPSCRLRKCYEAGMTLGARKL [R30E] | 0.019 ± 0.14 |
| QKTCLICGDEASGCHYGALTCGSCKVFFKNAAEGKQKYLCASRNDCTIDKFRRKNCPSCRLRKCYEAGMTLGARKL [R30N] | 0.014 ± 0.069 |
| QKTCLICGDEASGCHYGALTCGSCKVFFKVAAEGKQKYLCASRNDCTIDKFRRKNCPSCRLRKCYEAGMTLGARKL [R30V] | -0.066 ± 0.065 |
| QKTCLICGDEASGCHYGALTCGSCKVFFKQAAEGKQKYLCASRNDCTIDKFRRKNCPSCRLRKCYEAGMTLGARKL [R30Q] | -0.029 ± 0.089 |
| QKTCLICGDEASGCHYGALTCGSCKVFFKRAAEDKQKYLCASRNDCTIDKFRRKNCPSCRLRKCYEAGMTLGARKL [G34D] | -0.372 ± 0.49 |
| QKTCLICGDEASGCHYGALTCGSCKVFFKRAADGKQKYLCASRNDCTIDKFRRKNCPSCRLRKCYEAGMTLGARKL [E33D] | -0.066 ± 0.063 |
| QKTCLICGDEASGCHYGALTCGSCKVFFKRAAMGKQKYLCASRNDCTIDKFRRKNCPSCRLRKCYEAGMTLGARKL [E33M] | 0.014 ± 0.065 |
| QKTCLICGDEASGCHYGALTCGSCKVFFKRAAYGKQKYLCASRNDCTIDKFRRKNCPSCRLRKCYEAGMTLGARKL [E33Y] | -0.187 ± 0.064 |
